In publication PMC4147282, “Aromatic Amino Acid Mutagenesis at the Substrate Binding Pocket of Yarrowia lipolytica Lipase Lip2 Affects Its Activity and Thermostability” (The Scientific World Journal, 2014) one finds kcat data, which are given here for 1 protein.

Substrate in this data set: CCCCCCCCCCCCCCCC(=O)Oc1ccc([N+](=O)[O-])cc1
Briefly: purified protein. The class given is biochemical, Yarrowia lipolytica. The note with it: 50 mmol PBS, pH 8.0, 40°C, substrate 0.2–1 mmol.

B1: YLLip2 (lipase2 from Yarrowia lipolytica) (Yarrowia lipolytica) (protein)
chain: VYTSTETSHIDQESYNFFEKYARLANIGYCVGPGTKIFKPFNCGLQCAHFPNVELIEEFHDPRLIFDVSGYLAVDHASKQIYLVIRGTHSLEDVITDIRIMQAPLTNFDLAANISSTATCDDCLVHNGFIQSYNNTYNQIGPKLDSVIEQYPDYQIAVTGHSLGGAAALLFGINLKVNGHDPLVVTLGQPIVGNAGFANWVDKLFFGQENPDVSKVSKDRKLYRITHRGDIVPQVPFWDGYQHCSGEVFIDWPLIHPPLSNVVMCQGQSNKQCSAGNTLLQQVNVIGNHLQYFVTEGVCGI
notes: mature YLLip2, own prepro replaced by XPR2pre secretion signal, N-terminal 6xHis tag kept (HHHHHH-VYTST...); secreted from Y. lipolytica JMY1212 (plasmid pYL-H6-mYLLip2); IMAC purified; approx. 38 kDa on SDS-PAGE
In the case of B1, the kcat was 157 ± 1 s⁻¹.

The kcat is the maximal rate divided by the concentration of active sites.
